From patent publication US20230193409A1

Assays:
AcrVIA1-3xFLAG [1] = tested on: T1, AcrVIA1-3xFLAG
T1 sequence: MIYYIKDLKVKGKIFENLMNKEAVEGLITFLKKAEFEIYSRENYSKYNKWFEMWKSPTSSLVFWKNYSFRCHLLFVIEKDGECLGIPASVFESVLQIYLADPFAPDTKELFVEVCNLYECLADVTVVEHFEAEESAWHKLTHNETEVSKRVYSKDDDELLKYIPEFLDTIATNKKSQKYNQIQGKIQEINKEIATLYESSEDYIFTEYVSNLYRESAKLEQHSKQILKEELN

AcrVIA1 [2] = tested on: T2, AcrVIA1
T2 sequence: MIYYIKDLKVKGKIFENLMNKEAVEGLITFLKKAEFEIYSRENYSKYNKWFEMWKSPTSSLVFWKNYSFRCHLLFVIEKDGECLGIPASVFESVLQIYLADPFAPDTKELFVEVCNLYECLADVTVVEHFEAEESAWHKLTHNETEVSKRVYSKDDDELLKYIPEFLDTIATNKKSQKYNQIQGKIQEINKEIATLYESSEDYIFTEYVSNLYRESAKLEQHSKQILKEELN

AcrVIA1-3xFLAG [3] = target: T3, AcrVIA1-3xFLAG
T3 chain: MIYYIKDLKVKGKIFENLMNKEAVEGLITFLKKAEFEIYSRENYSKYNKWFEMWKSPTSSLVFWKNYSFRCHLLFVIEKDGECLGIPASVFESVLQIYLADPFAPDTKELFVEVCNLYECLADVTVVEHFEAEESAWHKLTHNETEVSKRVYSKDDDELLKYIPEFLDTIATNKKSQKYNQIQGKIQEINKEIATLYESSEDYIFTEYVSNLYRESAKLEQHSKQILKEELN

AcrVIA1 [4] = target: T4, AcrVIA1
T4 chain: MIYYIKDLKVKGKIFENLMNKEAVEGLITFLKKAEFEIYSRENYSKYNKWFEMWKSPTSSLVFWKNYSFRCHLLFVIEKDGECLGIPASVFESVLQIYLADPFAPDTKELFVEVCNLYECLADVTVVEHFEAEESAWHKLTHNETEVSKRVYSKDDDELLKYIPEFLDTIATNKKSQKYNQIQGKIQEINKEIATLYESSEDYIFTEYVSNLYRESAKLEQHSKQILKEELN

L. seeligeri Cas13a-His6
cis- and trans-RNA cleavage in vitro (FIG. 2A-B) (AcrVIA1-3xFLAG [1]): confirmed that both are active in vivo ... and in vitro (FIG. 2A-B)
cis-RNase activity: cleavage of radiolabeled target RNA in vitro (AcrVIA1 [2]): In the presence of excess AcrVIA1, however, target RNA cleavage was inhibited
nonspecific cleavage of labeled non-target RNA, AcrVIA1 added before target RNA ("Acr first" lane) (AcrVIA1 [2]): if the AcrVIA1 inhibitor is added to the reaction containing Cas13 before adding the target RNA, then AcrVIA1 prevents target RNA binding and no Cas13 activity is observed
trans-cleavage of a labeled non-target RNA upon addition of unlabeled protospacer RNA in vitro (AcrVIA1 [2]): AcrVIA1 inhibited Cas13a-mediated trans-cleavage of a labeled non-target RNA

B1: Leptotrichia buccalis Cas13a (protein)
chain: MKVTKVGGISHKKYTSEGRLVKSESEENRTDERLSALLNMRLDMYIKNPSSTETKENQKRIGKLKKFFSNKMVYLKDNTLSLKNGKKENIDREYSETDILESDVRDKKNFAVLKKIYLNENVNSEELEVFRNDIKKKLNKINSLKYSFEKNKANYQKINENNIEKVEGKSKRNIIYDYYRESAKRDAYVSNVKEAFDKLYKEEDIAKLVLEIENLTKLEKYKIREFYHEIIGRKNDKENFAKIIYEEIQNVNNMKELIEKVPDMSELKKSQVFYKYYLDKEELNDKNIKYAFCHFVEIEMSQLLKNYVYKRLSNISNDKIKRIFEYQNLKKLIENKLLNKLDTYVRNCGKYNYYLQDGEIATSDFIARNRQNEAFLRNIIGVSSVAYFSLRNILETENENDITGRMRGKTVKNNKGEEKYVSGEVDKIYNENKKNEVKENLKMFYSYDFNMDNKNEIEDFFANIDEAISSIRHGIVHFNLELEGKDIFAFKNIAPSEISKKMFQNEINEKKLKLKIFRQLNSANVFRYLEKYKILNYLKRTRFEFVNKNIPFVPSFTKLYSRIDDLKNSLGIYWKTPKTNDDNKTKEIIDAQIYLLKNIYYGEFLNYFMSNNGNFFEISKEIIELNKNDKRNLKTGFYKLQKFEDIQEKIPKEYLANIQSLYMINAGNQDEEEKDTYIDFIQKIFLKGFMTYLANNGRLSLIYIGSDEETNTSLAEKKQEFDKFLKKYEQNNNIKIPYEINEFLREIKLGNILKYTERLNMFYLILKLLNHKELTNLKGSLEKYQSANKEEAFSDQLELINLLNLDNNRVTEDFELEADEIGKFLDFNGNKVKDNKELKKFDTNKIYFDGENIIKHRAFYNIKKYGMLNLLEKIADKAGYKISIEELKKYSNKKNEIEKNHKMQENLHRKYARPRKDEKFTDEDYESYKQAIENIEEYTHLKNKVEFNELNLLQGLLLRILHRLVGYTSIWERDLRFRLKGEFPENQYIEEIFNFENKKNVKYKGGQIVEKYIKFYKELHQNDEVKINKYSSANIKVLKQEKKDLYIRNYIAHFNYIPHAEISLLEVLENLRKLLSYDRKLKNAVMKSVVDILKEYGFVATFKIGADKKIGIQTLESEKIVHLKNLKKKKLMTDRNSEELCKLVKIMFEYKMEEKKSEN
cis-RNA cleavage of spc2-target RNA by L. buccalis Cas13a (10 nM) with AcrVIA1-3xFLAG at 400, 100, 10 or 1 nM (AcrVIA1-3xFLAG [3]): AcrVIA1 does not inhibit Leptotrichia buccalis Cas13a
cis-RNA cleavage of spc2-target RNA by L. buccalis Cas13a (10 nM) with AcrVIA1 at 400, 100, 10 or 1 nM (AcrVIA1 [4]): Addition of AcrVIA1 had no effect on protospacer RNA cleavage by purified L. buccalis Cas13a^crRNA
